Measurements: publication PMC4091826 (Molecular Biology of the Cell, 2014)
Substitutions are numbered along the chain they refer to. In names and notes the source's numbering stands. Entries after “also recorded” stand apart in the source; their conditions may differ. No end group written: not given here.

B1: D411R (protein)
chain: QSTKVQGSVIGIDLGTTNSAVAIMEGKVPKIIENAEGSRTTPSVVAFTKEGERLVGIPAKRQAVVNPENTLFATKRLIGRRFEDAEVQRDIKQVPYKIVKHSNGDAWVEARGQTYSPAQIGGFVLNKMKETAEAYLGKPVKNAVVTVPAYFNDSQRQATKDAGQIVGLNVLRVVNEPTAAALAYGLEKSDSKVVAVFDLGGGTFDISILDIDNGVFEVKSTNGDTHLGGEDFDIYLLREIVSRFKTETGIDLENDRMAIQRIREAAEKAKIELSSTVSTEINLPFITADASGPKHINMKFSRAQFETLTAPLVKRTVDPVKKALKDAGLSTSDISEVLLVGGMSRMPKVVETVKSLFGKDPSKAVNPDEAVAIGAAVQGAVLSGEVTRVLLLDVTPLSLGIETLGGVFTRLIPRNTTIPTKKSQIFSTAAAGQTSVEIRVFQGERELVRDNKLIGNFTLAGIPPAPKGVPQIEVTFDIDADGIINVSARDKATNKDSSITVAGSSGLSENEIEQMVNDAEKFKSQDEARKQAIETANKADQLANDTENSLKEFEGKVDKAEAQKVRDQITSLKELVARVQGGEEVNAEELKTKTEELQTSSMKLFEQLYKNDSNNNNNNNGNNAESGETKQ
modifications: left off: His6, end not stated, state not stated
B2: E467A-D411R (protein)
chain: B1 chain with E444A
modifications: left off: His6, end not stated, state not stated
B3: D416R (protein)
chain: B1 chain with R388D, D393R
modifications: left off: His6, end not stated, state not stated
B4: S2-V524I: suppressor S2-V524I subcloned into the E467A-D411R backbone (protein)
chain: B1 chain with R388D, E444A, V501I
modifications: left off: His6, end not stated, state not stated
B5: Q465A (protein)
chain: B1 chain with R388D, Q442A
modifications: left off: His6, end not stated, state not stated
B6: E467A-D416R (protein, UniProt P0CS90 24-654, looked up, variant E467A D416R)
Import motor subunit, …: B1 chain with R388D, D393R, E444A
B7: S1-D519E: suppressor S1-D519E subcloned into the E467A-D411R backbone (protein)
chain: B1 chain with R388D, E444A, D496E
modifications: left off: His6, end not stated, state not stated
B8: S7-N508T: suppressor S7-N508T subcloned into the E467A-D411R backbone (protein)
chain: B1 chain with R388D, E444A, N485T
modifications: left off: His6, end not stated, state not stated
B9: G466E (protein)
chain: B1 chain with R388D, G443E
modifications: left off: His6, end not stated, state not stated
B10: WT Ssc1: Wild type Ssc1 (His6), yeast mtHsp70 (protein)
chain: B1 chain with R388D
modifications: left off: His6, end not stated, state not stated
B11: S209 (protein)
chain: B1 chain with R388D, E444A, K467R
modifications: left off: His6, end not stated, state not stated
B12: Ssc1 E467A suppressor S201 (E467A, D519E), purified (natural protein, S. cerevisiae, UniProt P0CS90 24-654, looked up)
chain: B1 chain with R388D, E444A, D496E
B13: Ssc1 E467A suppressor S207 (E467A, N508T), purified (natural protein, S. cerevisiae, UniProt P0CS90 24-654, looked up)
chain: B1 chain with R388D, E444A, N485T
B14: Ssc1 E467A suppressor S208 (E467A, D519G), purified (natural protein, S. cerevisiae, UniProt P0CS90 24-654, looked up)
chain: B1 chain with R388D, E444A, D496G
B15: Ssc1 E467A suppressor S203 (E467A, D519Y), purified (natural protein, S. cerevisiae, UniProt P0CS90 24-654, looked up)
chain: B1 chain with R388D, E444A, D496Y
B16: Ssc1 E467A suppressor S205 (E467A, N508K), purified (natural protein, S. cerevisiae, UniProt P0CS90 24-654, looked up)
chain: B1 chain with R388D, E444A, N485K
B17: Ssc1 E467A suppressor S202 (E467A, V524I), purified (natural protein, S. cerevisiae, UniProt P0CS90 24-654, looked up)
chain: B1 chain with R388D, E444A, V501I
B18: Ssc1 E467A suppressor S204 (E467A, D519N), purified (natural protein, S. cerevisiae, UniProt P0CS90 24-654, looked up)
chain: B1 chain with R388D, E444A, D496N
B19: Ssc1 E467A suppressor S209 (E467A, K490R), purified (natural protein, S. cerevisiae, UniProt P0CS90 24-654, looked up)
chain: B1 chain with R388D, E444A, K467R

Each molecule was assayed on Ssc1 (assay: ATP-induced substrate release by fluorescence anisotropy, Ssc1). Conditions: 2.5 mM ATP, 5 μM Ssc1[F-P5], 5 min.
Assay type: biochemical, S. cerevisiae

| Molecule | ATP-induced substrate release, in words |
| --- | --- |
| B1 | modest reductions |
| B2 | markedly compromised in ATP-dependent conformational changes required for release of bound substrate |

Same assay, conditions: 2.5 mM ATP, 5 μM Ssc1[F-P5], anisotropy decrease up to 5 min

| Molecule | substrate (peptide) release upon ATP addition [%] |
| --- | --- |
| B3 | < 10 |

These molecules were tested on yeast cells (assay: Growth phenotype). Conditions: minimal medium or 5-FOA medium, serial dilutions.
Assay type: cell-based, S. cerevisiae

| Molecule | growth phenotype, in words |
| --- | --- |
| B4 | significant growth rescue of the E467A-D411R–associated lethality at different temperatures on 5-FOA medium |
| B5 | viable at 30 °C but displayed temperature sensitivity at 34 and 37 °C |
| B6 | semidominant phenotype |
| B7 | significant growth rescue of the E467A-D411R–associated lethality at different temperatures on 5-FOA medium |
| B3 | severe growth defect, as evidenced by its inviability on 5-FOA medium; also recorded: inviable |
| B8 | significant growth rescue of the E467A-D411R–associated lethality at different temperatures on 5-FOA medium |
| B1 | did not result in a growth defect; also recorded: completely viable |
| B2 | lethal, as demonstrated by lack of growth on 5-FOA |
| B9 | lethal and unable to grow on 5-FOA medium |

Each molecule was assayed on Tim44 (assay: Coimmunoprecipitation of Ssc1 with Tim44). Conditions: mitochondrial lysates, anti-Ssc1, presence or absence of 1 mM ATP; Figure 6A.
Assay type: binding, S. cerevisiae

| Molecule | interaction with Tim44, in words |
| --- | --- |
| B10 | robust interaction with Tim44 in the absence of ATP, and this binding was sensitive to the presence of ATP |

Each molecule was assayed on Ssc1 (assay: Single-turnover basal ATPase assay, Ssc1). Conditions: 25°C.
Assay type: biochemical, S. cerevisiae

| Molecule | basal ATPase activity, in words |
| --- | --- |
| B11 | able to suppress the elevated basal activity of the mutant |

Same assay, conditions: 25°C, buffer A, versus wild type

| Molecule | fold increase in basal ATPase activity |
| --- | --- |
| B5 | 2.25 fold |
| B3 | 4.5 fold |
| B1 | twofold increase |
| B9 | 11 fold |

What follows are molecules tested on Ssc1 (assay: Tryptophan fluorescence quenching upon ATP binding, Ssc1). Conditions: 2.5 μM protein, 1000-fold excess ATP, wild type set at 100%.
Assay type: biochemical, S. cerevisiae

| Molecule | tryptophan fluorescence quenching upon ATP binding, in words |
| --- | --- |
| B3 | significantly lowered quenching of tryptophan fluorescence |
| B1 | modest reductions |
| B2 | markedly compromised |

Target: T1, fluorescein-labeled P5 peptide (also: fluorescein label, position not given here)
T1 peptide: CALLLSAPRR
Assay: fluorescence polarisation
Conditions: not given

| Molecule | substrate release upon ATP binding [%] |
| --- | --- |
| B12 | > 50 |
| B13 | > 50 |
| B14 | > 50 |
| B15 | > 50 |
| B16 | > 50 |
| B17 | > 50 |
| B18 | > 50 |
| B19 | > 50 |

These molecules were tested on Ssc1 (assay: Stimulation of ATPase activity by P5 peptide, Ssc1). Conditions: 100-fold molar excess P5, single-turnover.
Assay type: biochemical, S. cerevisiae

| Molecule | stimulation of ATPase activity by P5, in words |
| --- | --- |
| B11 | could stimulate ATPase activity similar to wild-type levels; also recorded: augment peptide-mediated ATPase stimulation |
| B3 | stimulated fivefold less by P5 as compared with the wild-type protein |
| B1 | modest reductions in stimulation of ATPase activity by substrate |
| B2 | severely impaired stimulation by substrate |

Each molecule was assayed on Ssc1 (assay: Limited proteolytic cleavage by trypsin). Conditions: 1:100 (wt/wt) trypsin, 25°C, SDS-PAGE.
Assay type: biochemical, S. cerevisiae

| Molecule | trypsin cleavage pattern, in words |
| --- | --- |
| B10 | limited proteolysis pattern, leading to formation of stable 30-kDa fragments |
